The target in this experiment is spike of variant B.1.351 v.1 on pseudovirus. The experiment in a line: cell-based or functional assay.

Substance LY-CoV555 (antibody) returned a neutralization IC50 greater than 10 µg/mL. CB6 (antibody) returned a neutralization IC50 greater than 10 µg/mL.

For the origin of these results see US20240117011A1.
